Key:
[1] = biological target: T1, TCR/FcR #2 CD16 extracellular domain (Fc binding domain) comprising polypeptide: WT high affinity CD16 … (human, UniProt P08637 17-254); assay: flow cytometry; 1 h, 37 °C, complete media, washed (FIGS. 38C-38D)
T1 construct: these cells also carry endogenous CD16; also called TCR/FcR #2 transduced NK cells; uTNK15 and TCR/FcR #2 transduced NK cells

[2] = biological target: T2, non-transduced (NT) cord blood derived NK cells (endogenous wild type CD16; no CD3/TCR) (human, UniProt P08637 17-254); assay: as above
T2 construct: whole, on cells; A control cell, not a single protein; for the CD3 engagers the cells are the control without CD3; also called NT NK cells; NT NK
T2 sequence (P08637 17-254): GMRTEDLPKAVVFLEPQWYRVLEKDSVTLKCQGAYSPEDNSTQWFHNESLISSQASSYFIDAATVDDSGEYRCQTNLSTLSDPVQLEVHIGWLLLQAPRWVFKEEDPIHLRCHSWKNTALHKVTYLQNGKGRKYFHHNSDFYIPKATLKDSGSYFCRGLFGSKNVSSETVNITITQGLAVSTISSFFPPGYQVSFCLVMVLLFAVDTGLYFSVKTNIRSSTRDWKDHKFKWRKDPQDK

T1 sequence (P08637 17-254 F176V limits assumed, form in doubt): as the sequence (P08637 17-254) above, with F160V counted along it

B1: Tafasitamab (antibody)
chain 1: EVQLVESGGGLVKPGGSLKLSCAASGYTFTSYVMHWVRQAPGKGLEWIGYINPYNDGTKYNEKFQGRVTISSDKSISTAYMELSSLRSEDTAMYYCARGTYYYGTRVFDYWGQGTLVTVSSASTKGPSVFPLAPSSKSTSGGTAALGCLVKDYFPEPVTVSWNSGALTSGVHTFPAVLQSSGLYSLSSVVTVPSSSLGTQTYICNVNHKPSNTKVDKKVEPKSCDKTHTCPPCPAPELLGGPDVFLFPPKPKDTLMISRTPEVTCVVVDVSHEDPEVQFNWYVDGVEVHNAKTKPREEQFNSTFRVVSVLTVVHQDWLNGKEYKCKVSNKALPAPEEKTISKTKGQPREPQVYTLPPSREEMTKNQVSLTCLVKGFYPSDIAVEWESNGQPENNYKTTPPMLDSDGSFFLYSKLTVDKSRWQQGNVFSCSVMHEALHNHYTQKSLSLSPGK
chain 2: DIVMTQSPATLSLSPGERATLSCRSSKSLQNVNGNTYLYWFQQKPGQSPQLLIYRMSNLNSGVPDRFSGSGSGTEFTLTISSLEPEDFAVYYCMQHLEYPITFGAGTKLEIKRTVAAPSVFIFPPSDEQLKSGTASVVCLLNNFYPREAKVQWKVDNALQSGNSQESVTEQDSKDSTYSLSSTLTLSKADYEKHKVYACEVTHQGLSSPVTKSFNRGEC
binding percentage (average across 3 trials) [1]: > 80%
binding percentage (average across 3 trials) [2]: ~70%
